Results: patent publication US20140087995A1 (published 2014)
Numbered stars: 1 amine (or outer) side, 2 acyl side, 3 side chain; on linkers, the order of the positions; unused ones are H or OH. Bridge positions count the residues as written; N and C are the ends. Side chains are listed from the residue outwards. Ends that are not written are not given here. * marks the point of attachment. C20 diacid = O=C(O)CCCCCCCCCCCCCCCCCCC(=O)*; γGlu = O=C(O)[C@H](CCC(=O)[*:2])N[*:1]; AEEA = NCCOCCOCC(=O)O

T1: human calcitonin receptor (human, UniProt P30988 25-474)
T1 sequence (looked up): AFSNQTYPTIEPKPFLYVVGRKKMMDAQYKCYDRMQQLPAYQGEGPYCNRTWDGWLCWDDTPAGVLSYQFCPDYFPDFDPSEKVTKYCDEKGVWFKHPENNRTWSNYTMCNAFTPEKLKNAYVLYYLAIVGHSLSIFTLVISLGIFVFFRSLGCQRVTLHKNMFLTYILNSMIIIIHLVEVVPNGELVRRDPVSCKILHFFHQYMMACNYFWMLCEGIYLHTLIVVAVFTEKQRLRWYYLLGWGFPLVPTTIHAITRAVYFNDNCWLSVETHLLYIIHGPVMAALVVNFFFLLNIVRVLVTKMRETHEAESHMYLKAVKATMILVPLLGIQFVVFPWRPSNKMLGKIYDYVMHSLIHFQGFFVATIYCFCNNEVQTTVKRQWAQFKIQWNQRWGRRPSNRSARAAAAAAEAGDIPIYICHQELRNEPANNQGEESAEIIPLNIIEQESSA

T2: human amylin receptor (amylin 3(a) receptor: human calcitonin receptor plus RAMP-3) (human, UniProt P30988 25-474; O60896 24-148)
T2 sequence (looked up) 1: T1 sequence (looked up)
T2 sequence (looked up) 2: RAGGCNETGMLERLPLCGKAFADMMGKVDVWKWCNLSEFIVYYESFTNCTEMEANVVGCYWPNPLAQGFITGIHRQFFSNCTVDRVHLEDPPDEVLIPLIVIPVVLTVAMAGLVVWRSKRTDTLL

B1: N^α1-[(4S)-4-carboxy-4-(19-carboxynonadecanoylamino)butanoyl]-[Arg17,Pro21,Pro27,Pro34,Glu35]-h-amylin (peptide)
peptide: {C20 diacid-γGlu}-KCNTATCATQRLANFLRHSSPNFGAIPSSTNVGPETY-NH2
modifications: disulfide 2-7
SMILES: CC[C@H](C)[C@H](NC(=O)[C@H](C)NC(=O)CNC(=O)[C@H](Cc1ccccc1)NC(=O)[C@H](CC(N)=O)NC(=O)[C@@H]1CCCN1C(=O)[C@H](CO)NC(=O)[C@H](CO)NC(=O)[C@H](Cc1c[nH]cn1)NC(=O)[C@H](CCCNC(=N)N)NC(=O)[C@H](CC(C)C)NC(=O)[C@H](Cc1ccccc1)NC(=O)[C@H](CC(N)=O)NC(=O)[C@H](C)NC(=O)[C@H](CC(C)C)NC(=O)[C@H](CCCNC(=N)N)NC(=O)[C@H](CCC(N)=O)NC(=O)[C@@H](NC(=O)[C@H](C)NC(=O)[C@@H]1CSSC[C@H](NC(=O)[C@H](CCCCN)NC(=O)CC[C@H](NC(=O)CCCCCCCCCCCCCCCCCCC(=O)O)C(=O)O)C(=O)N[C@@H](CC(N)=O)C(=O)N[C@@H]([C@@H](C)O)C(=O)N[C@@H](C)C(=O)N[C@@H]([C@@H](C)O)C(=O)N1)[C@@H](C)O)C(=O)N1CCC[C@H]1C(=O)N[C@@H](CO)C(=O)N[C@@H](CO)C(=O)N[C@H](C(=O)N[C@@H](CC(N)=O)C(=O)N[C@H](C(=O)NCC(=O)N1CCC[C@H]1C(=O)N[C@@H](CCC(=O)O)C(=O)N[C@H](C(=O)N[C@@H](Cc1ccc(O)cc1)C(N)=O)[C@@H](C)O)C(C)C)[C@@H](C)O
notes: also called compound 29
B2: N^α1-[(4S)-4-carboxy-4-(19-carboxynonadecanoylamino)butanoyl]-[Glu14,Arg17,Pro21,Pro28,Glu35]-h-amylin (peptide)
peptide: {C20 diacid-γGlu}-KCNTATCATQRLAEFLRHSSPNFGAILPSTNVGSETY-NH2
modifications: disulfide 2-7
notes: also called compound 33
B3: N^α1-[(4S)-4-carboxy-4-(19-carboxynonadecanoylamino)butanoyl]-[His14,Arg17,Pro21,Pro27,Glu35]-h-amylin (peptide)
peptide: {C20 diacid-γGlu}-KCNTATCATQRLAHFLRHSSPNFGAIPSSTNVGSETY-NH2
modifications: disulfide 2-7
SMILES: CC[C@H](C)[C@H](NC(=O)[C@H](C)NC(=O)CNC(=O)[C@H](Cc1ccccc1)NC(=O)[C@H](CC(N)=O)NC(=O)[C@@H]1CCCN1C(=O)[C@H](CO)NC(=O)[C@H](CO)NC(=O)[C@H](Cc1c[nH]cn1)NC(=O)[C@H](CCCNC(=N)N)NC(=O)[C@H](CC(C)C)NC(=O)[C@H](Cc1ccccc1)NC(=O)[C@H](Cc1c[nH]cn1)NC(=O)[C@H](C)NC(=O)[C@H](CC(C)C)NC(=O)[C@H](CCCNC(=N)N)NC(=O)[C@H](CCC(N)=O)NC(=O)[C@@H](NC(=O)[C@H](C)NC(=O)[C@@H]1CSSC[C@H](NC(=O)[C@H](CCCCN)NC(=O)CC[C@H](NC(=O)CCCCCCCCCCCCCCCCCCC(=O)O)C(=O)O)C(=O)N[C@@H](CC(N)=O)C(=O)N[C@@H]([C@@H](C)O)C(=O)N[C@@H](C)C(=O)N[C@@H]([C@@H](C)O)C(=O)N1)[C@@H](C)O)C(=O)N1CCC[C@H]1C(=O)N[C@@H](CO)C(=O)N[C@@H](CO)C(=O)N[C@H](C(=O)N[C@@H](CC(N)=O)C(=O)N[C@H](C(=O)NCC(=O)N[C@@H](CO)C(=O)N[C@@H](CCC(=O)O)C(=O)N[C@H](C(=O)N[C@@H](Cc1ccc(O)cc1)C(N)=O)[C@@H](C)O)C(C)C)[C@@H](C)O
notes: also called compound 30
B4: N^ε1-[2-[2-[2-[[2-[2-[2-[[(4S)-4-carboxy-4-(19-carboxynonadecanoylamino)butanoyl]amino]ethoxy]ethoxy]acetyl]amino]ethoxy]ethoxy]acetyl]-[Arg17,Pro21,Pro27,Glu35 … (peptide)
peptide: K([AEEA-AEEA-γGlu-C20 diacid])CNTATCATQRLANFLRHSSPNFGAIPSSTNVGSETY-NH2
modifications: disulfide 2-7; N-terminus assumed
SMILES: CC[C@H](C)[C@H](NC(=O)[C@H](C)NC(=O)CNC(=O)[C@H](Cc1ccccc1)NC(=O)[C@H](CC(N)=O)NC(=O)[C@@H]1CCCN1C(=O)[C@H](CO)NC(=O)[C@H](CO)NC(=O)[C@H](Cc1c[nH]cn1)NC(=O)[C@H](CCCNC(=N)N)NC(=O)[C@H](CC(C)C)NC(=O)[C@H](Cc1ccccc1)NC(=O)[C@H](CC(N)=O)NC(=O)[C@H](C)NC(=O)[C@H](CC(C)C)NC(=O)[C@H](CCCNC(=N)N)NC(=O)[C@H](CCC(N)=O)NC(=O)[C@@H](NC(=O)[C@H](C)NC(=O)[C@@H]1CSSC[C@H](NC(=O)[C@@H](N)CCCCNC(=O)COCCOCCNC(=O)COCCOCCNC(=O)CC[C@H](NC(=O)CCCCCCCCCCCCCCCCCCC(=O)O)C(=O)O)C(=O)N[C@@H](CC(N)=O)C(=O)N[C@@H]([C@@H](C)O)C(=O)N[C@@H](C)C(=O)N[C@@H]([C@@H](C)O)C(=O)N1)[C@@H](C)O)C(=O)N1CCC[C@H]1C(=O)N[C@@H](CO)C(=O)N[C@@H](CO)C(=O)N[C@H](C(=O)N[C@@H](CC(N)=O)C(=O)N[C@H](C(=O)NCC(=O)N[C@@H](CO)C(=O)N[C@@H](CCC(=O)O)C(=O)N[C@H](C(=O)N[C@@H](Cc1ccc(O)cc1)C(N)=O)[C@@H](C)O)C(C)C)[C@@H](C)O
notes: also called compound 25
B5: N^α1-[(4S)-4-carboxy-4-(19-carboxynonadecanoylamino)butanoyl]-[Glu14,Arg17,Pro21,Pro27,His35]-h-amylin (peptide)
peptide: {C20 diacid-γGlu}-KCNTATCATQRLAEFLRHSSPNFGAIPSSTNVGSHTY-NH2
modifications: disulfide 2-7
SMILES: CC[C@H](C)[C@H](NC(=O)[C@H](C)NC(=O)CNC(=O)[C@H](Cc1ccccc1)NC(=O)[C@H](CC(N)=O)NC(=O)[C@@H]1CCCN1C(=O)[C@H](CO)NC(=O)[C@H](CO)NC(=O)[C@H](Cc1c[nH]cn1)NC(=O)[C@H](CCCNC(=N)N)NC(=O)[C@H](CC(C)C)NC(=O)[C@H](Cc1ccccc1)NC(=O)[C@H](CCC(=O)O)NC(=O)[C@H](C)NC(=O)[C@H](CC(C)C)NC(=O)[C@H](CCCNC(=N)N)NC(=O)[C@H](CCC(N)=O)NC(=O)[C@@H](NC(=O)[C@H](C)NC(=O)[C@@H]1CSSC[C@H](NC(=O)[C@H](CCCCN)NC(=O)CC[C@H](NC(=O)CCCCCCCCCCCCCCCCCCC(=O)O)C(=O)O)C(=O)N[C@@H](CC(N)=O)C(=O)N[C@@H]([C@@H](C)O)C(=O)N[C@@H](C)C(=O)N[C@@H]([C@@H](C)O)C(=O)N1)[C@@H](C)O)C(=O)N1CCC[C@H]1C(=O)N[C@@H](CO)C(=O)N[C@@H](CO)C(=O)N[C@H](C(=O)N[C@@H](CC(N)=O)C(=O)N[C@H](C(=O)NCC(=O)N[C@@H](CO)C(=O)N[C@@H](Cc1c[nH]cn1)C(=O)N[C@H](C(=O)N[C@@H](Cc1ccc(O)cc1)C(N)=O)[C@@H](C)O)C(C)C)[C@@H](C)O
notes: also called compound 18

Each binder was assayed against T1, human calcitonin receptor (assay: cell-based or functional assay).

Binder	hCTR funct. EC50 (pM)
B1	857
B2	528
B3	1680
B4	10000
B5	742

The binders below were run against T2, human amylin receptor (amylin 3(a) …) (assay: cell-based or functional assay).

Binder	Ratio hCT/hAmylin funct.	hAmylin-R funct. EC50 (pM)
B1	8.7	99
B2	2.2	243
B3		134
B4	46.2	217
B5	4.8	154

These binders were tested against T2, human amylin receptor (amylin 3(a) …) (assay: SPA competition binding, displacement of 125I-rat amylin, membranes of BHK amylin 3(a)/CRE-luc cells).
Description: The binding assay was performed using scintillation proximity assay (SPA) beads (RPNQ0001) from PerkinElmer and cell membranes from the Amylin 3(a)/CRE-luc cells (as described in Assay (II)) were used. Membranes were prepared in the following way; the cells were rinsed with PBS and incubated with Versene for approximately 5 min before harvesting. The cells were flushed with PBS and the cell-suspension was centrifuged for 5 min at 1000 rpm. Cells were homogenized (ultrathurrax) in a buffer containing 20 mM Na-HEPES and 10 mM EDTA (pH 7.4) and centrifuged at 20.000 rpm for 15 min. The resulting pellet was resuspended, homogenized and centrifuged (20.000 rpm, 15 min) in a buffer containing 20 mM Na-HEPES and 0.1 mM EDTA (pH 7.4, buffer 2). The resulting pellet was resuspended in buffer 2 and protein concentration was measured (BCA protein Assay, Pierce). The homogenate was kept cold during the whole procedure. The membranes were kept at −80° C. until use. The assay was performed in a 384 well Optiplate (PerkinElmer) in a total volume of 40 ul. Membranes were mixed with SPA beads. Final concentration of membranes 35 ng/μL final and SPA beads was 0.05 mg/well. Test-compounds were dissolved in DMSO and further diluted in assay buffer (50 mM Hepes, pH 7.4, 1 mM CaCl2, 5 mM MgCl₂, 0.1% OA and 0.02% Tween20). […] The final mixture was incubated with shaking at 400 rpm for 120 min at 25° C. prior to centrifugation (1500 rpm, 10 min). Samples were analyzed on TopCounter™ (Packard). The IC₅₀ was calculated using (one site binding competition analysis) GraphPad Prism5 as a measure of receptor affinity.

Binder	IC50 [nM]
B1	0.577
B2	0.915
B3	0.919
B4	0.768
B5	0.554
